{"source": "patent US20250368754A1", "about": "(KANAPH THERAPEUTICS, published 2025)", "binders": {"B1": {"name": "T3.01 (anti-hu FAP/hu scLIGHT3, hu IgG1 DANG) (bispecific antibody)", "heavy": "QVQLVQSGAEVKKPGASVKVSCKTSRYTFTEYTIHWVRQAPGQRLEWIGGINPNNGIPNYNQKFKGRVTITVDTSASTAYMELSSLRSEDTAVYYCARRRIAYGYDEGHAMDYWGQGTLVTVSSASTKGPSVFPLAPSSKSTSGGTAALGCLVKDYFPEPVTVSWNSGALTSGVHTFPAVLQSSGLYSLSSVVTVPSSSLGTQTYICNVNHKPSNTKVDKKVEPKSCDKTHTCPPCPAPELLGGPSVFLFPPKPKDTLMISRTPEVTCVVVAVSHEDPEVKFNWYVDGVEVHNAKTKPREEQYGSTYRVVSVLTVLHQDWLNGKEYKCKVSNKALPAPIEKTISKAKGQPREPQVYTLPPSRDELTKNQVSLWCLVKGFYPSDIAVEWESNGQPENNYKTTPPVLDSDGSFFLYSKLTVDKSRWQQGNVFSCSVMHEALHNHYTQKSLSLSPGK", "light": "not shown", "chain": "not shown", "notes": "Knob-into-hole heterodimer: one anti-FAP Fab arm and one single-chain human LIGHT (91-240) homotrimer arm"}, "B2": {"name": "T3.14 (anti-hu FAP/hu scLIGHT-LTb2, hu IgG1 DANG) (bispecific antibody)", "heavy": "QVQLVQSGAEVKKPGASVKVSCKTSRYTFTEYTIHWVRQAPGQRLEWIGGINPNNGIPNYNQKFKGRVTITVDTSASTAYMELSSLRSEDTAVYYCARRRIAYGYDEGHAMDYWGQGTLVTVSSASTKGPSVFPLAPSSKSTSGGTAALGCLVKDYFPEPVTVSWNSGALTSGVHTFPAVLQSSGLYSLSSVVTVPSSSLGTQTYICNVNHKPSNTKVDKKVEPKSCDKTHTCPPCPAPELLGGPSVFLFPPKPKDTLMISRTPEVTCVVVAVSHEDPEVKFNWYVDGVEVHNAKTKPREEQYGSTYRVVSVLTVLHQDWLNGKEYKCKVSNKALPAPIEKTISKAKGQPREPQVYTLPPSRDELTKNQVSLWCLVKGFYPSDIAVEWESNGQPENNYKTTPPVLDSDGSFFLYSKLTVDKSRWQQGNVFSCSVMHEALHNHYTQKSLSLSPGK", "light": "not shown", "chain": "not shown", "notes": "Knob-into-hole; single-chain heterotrimer of one human LIGHT and two human lymphotoxin beta (87-243)"}}, "key": {"[1]": {"target": "T1, recombinant human herpes virus entry mediator (HVEM) (human, UniProt Q92956 39-202)", "T1 construct": "neither construct is described; also called human HVEM; recombinant human HVEM protein (R&D systems)", "T1 sequence (looked up)": "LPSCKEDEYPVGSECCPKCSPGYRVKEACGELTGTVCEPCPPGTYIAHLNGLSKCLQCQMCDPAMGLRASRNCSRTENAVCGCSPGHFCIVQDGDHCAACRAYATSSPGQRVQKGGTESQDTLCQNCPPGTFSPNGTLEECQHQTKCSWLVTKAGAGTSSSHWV", "test": "SPR, human HVEM immobilised on CM5, fusion protein as analyte, 1:1 binding model", "protocol": "(§1) Specifically, the surface of the CM5 chip was activated with a 1:1 mixture of […], and 5 to 6 μg/mL of human HVEM was immobilized for 60 seconds at a rate of 10 μL/min. The remaining active ester groups were blocked with 1 M ethanolamine. T3.01, T3.07, T3.09, T3.14, and T3.18 were each diluted to 100 nM in 1×HBS-EP+buffer solution and diluted by serial dilution. The diluted fusion proteins were reacted at a rate of 30 μL/min. The association and dissociation times were 180 seconds and 400 seconds, respectively. After the dissociation step, stabilization was performed for 60 seconds, and then the regeneration step was performed for 30 seconds with a 10 mM glycine pH 1.5 solution at a rate of 30 μL/min."}, "[2]": {"target": "T2, recombinant human FAP (human, UniProt Q12884 26-760)", "T2 construct": "also called rhFAP", "T2 sequence (looked up)": "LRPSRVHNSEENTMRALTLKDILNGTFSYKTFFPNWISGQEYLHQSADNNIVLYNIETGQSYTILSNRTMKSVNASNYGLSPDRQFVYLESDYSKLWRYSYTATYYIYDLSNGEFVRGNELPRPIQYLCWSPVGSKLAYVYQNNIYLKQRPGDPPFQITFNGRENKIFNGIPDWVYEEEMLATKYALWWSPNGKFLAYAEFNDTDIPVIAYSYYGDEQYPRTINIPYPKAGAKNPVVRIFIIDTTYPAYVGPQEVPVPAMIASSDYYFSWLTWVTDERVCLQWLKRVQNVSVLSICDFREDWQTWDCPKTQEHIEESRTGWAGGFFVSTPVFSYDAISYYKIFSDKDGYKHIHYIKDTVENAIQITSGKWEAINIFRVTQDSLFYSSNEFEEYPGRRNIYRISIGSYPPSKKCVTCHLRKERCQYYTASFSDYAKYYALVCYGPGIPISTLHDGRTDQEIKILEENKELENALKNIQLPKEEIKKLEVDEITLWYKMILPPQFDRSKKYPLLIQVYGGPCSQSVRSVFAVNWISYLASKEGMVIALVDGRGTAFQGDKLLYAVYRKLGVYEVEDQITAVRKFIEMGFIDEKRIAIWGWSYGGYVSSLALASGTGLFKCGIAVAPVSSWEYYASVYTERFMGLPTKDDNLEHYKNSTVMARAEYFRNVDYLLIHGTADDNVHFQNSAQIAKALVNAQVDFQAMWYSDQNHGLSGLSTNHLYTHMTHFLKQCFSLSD", "test": "SPR, fusion protein captured by anti-human IgG (Fc) on CM5, recombinant human FAP as analyte, 1:1 binding model", "protocol": "Specifically, the surface of the CM5 chip was activated with a 1:1 mixture of […] NHS (N-hydroxysuccinimide) and 200 nM EDC (1-ethyl-3-(3-dimethylaminopropyl)carbodiimide), and 20 μg/mL of anti-human IgG (Fc) antibody was immobilized for 400 seconds at a rate of 10 μL/min. The remaining active ester groups were blocked with 1 M ethanolamine. T3.01, T3.07, and T3.14 were diluted to 2 μg/mL, 1 μg/mL, and 2 μg/mL, respectively, and reacted on the CM5 chip immobilized with the anti-human IgG (Fc) antibody. The recombinant human FAP was diluted to 50 nM or 100 nM in 1×HBS-EP+buffer solution and diluted by serial dilution. The diluted recombinant human FAP was reacted at a rate of 30 μL/min. The association and dissociation times were 180 seconds and 400 seconds, respectively. After the dissociation step, stabilization was performed for 60 seconds, and then the regeneration step was performed for 30 seconds with a 10 mM glycine pH 1.5 solution at a rate of 30 μL/min."}, "[3]": {"target": "T3, human LTβR on A375 cells (human, UniProt P36941 31-435)", "T3 construct": "whole, on cells; Endogenous receptor of a human cell line; also called LTβR expressing A375 cells; LTβR expressing cell line", "T3 sequence (P36941 31-435)": "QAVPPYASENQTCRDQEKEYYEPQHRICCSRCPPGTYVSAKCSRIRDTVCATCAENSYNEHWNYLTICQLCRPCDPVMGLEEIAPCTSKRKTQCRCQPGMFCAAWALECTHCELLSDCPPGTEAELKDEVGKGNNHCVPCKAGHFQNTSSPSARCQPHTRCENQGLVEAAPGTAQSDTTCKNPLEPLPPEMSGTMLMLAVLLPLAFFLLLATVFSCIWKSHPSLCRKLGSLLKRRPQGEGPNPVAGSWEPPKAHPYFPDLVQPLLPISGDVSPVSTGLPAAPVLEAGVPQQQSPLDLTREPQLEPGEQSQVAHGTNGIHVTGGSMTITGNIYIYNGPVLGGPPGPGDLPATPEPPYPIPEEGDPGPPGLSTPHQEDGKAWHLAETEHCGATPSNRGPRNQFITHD", "test": "flow cytometry on A375 cells, serial dilution from 500 nM, anti-human IgG detection", "protocol": "Specifically, the A375 cell line was prepared by suspending in a FACS buffer solution at 1×10⁵ cells/100 μL, and treated with 100 μL each of T3.01, T3.07, T3.04, and T3.18 prepared by suspending at 500 nM and diluting by serial dilution. The cells were washed twice with a FACS buffer solution. The cells were stained with an anti-human IgG antibody (Biolegend). The expression ratio of the stained cells was measured using BD LSR and analyzed using FlowJo software."}, "[4]": {"target": "T1, recombinant human herpes virus entry …", "test": "SPR, human HVEM immobilised on the chip (title: PRO096; 6ug/ml human HVEM pH5.5), T3.14 as analyte 0.78125-100 nM", "protocol": "as §1"}}, "data": [{"binder": "B1", "values": [{"measurement": "Kd", "setting": "[1]", "value": 4.24, "unit": "nM"}, {"measurement": "koff", "setting": "[1]", "value": 0.00119, "unit": "s⁻¹"}, {"measurement": "kon", "setting": "[1]", "value": 281000, "unit": "M⁻¹ s⁻¹"}, {"measurement": "Kd", "setting": "[2]", "value": 0.0364, "unit": "nM"}, {"measurement": "koff", "setting": "[2]", "value": "3.89e-06", "unit": "s⁻¹"}, {"measurement": "kon", "setting": "[2]", "value": 107000, "unit": "M⁻¹ s⁻¹"}, {"measurement": "percent of cells bound", "setting": "[3]", "value": "≥ 96", "unit": "%"}]}, {"binder": "B2", "values": [{"measurement": "binding result", "setting": "[4]", "value": "no binding (tested: 100 nM)"}, {"measurement": "Kd", "setting": "[2]", "value": 0.0123, "unit": "nM"}, {"measurement": "koff", "setting": "[2]", "value": "1.53e-06", "unit": "s⁻¹"}, {"measurement": "kon", "setting": "[2]", "value": 124000, "unit": "M⁻¹ s⁻¹"}]}]}
